As usually defined, the stoichiometry N is a count of units in the complex or per binding partner.

The data set deals with the molecule itself. Description: SEC. In general terms: In gel filtration, larger molecules generally elute earlier.

B1: Robo2^R1I1+2 Ig1-5 fragment (Ig1+2 of Robo, Ig3-5 of Robo2) (domain or fragment)
chain: not shown
With B1, the “stoichiometry N” value came to 2.

Source of the values: publication PMC4078746 (Current biology : CB, 2010).
